According to article PMC10397247:

Experiments:
Experiment in all cases: two-hybrid library CCmax;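 note: natural log of median RNA to DNA barcode read ratio; higher means stronger binding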
Conditions in all cases: mean of both orientations
[1] = molecular target: T1, P6-AA-1HGe-A
T1 chain: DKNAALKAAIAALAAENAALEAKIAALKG

[2] = molecular target: T2, P6-AA-1HGe-M
T2 chain: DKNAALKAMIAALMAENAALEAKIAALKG

[3] = molecular target: T3, P6-AA-1HGe-T
T3 chain: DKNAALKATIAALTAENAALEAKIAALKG

[4] = molecular target: T4, P6-AA-1HGe-W
T4 chain: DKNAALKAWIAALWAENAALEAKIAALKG

[5] = molecular target: T5, P6-AA-1HGe-S
T5 chain: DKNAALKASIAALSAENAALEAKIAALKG

[6] = molecular target: T6, P6-AA-1HGe-R
T6 chain: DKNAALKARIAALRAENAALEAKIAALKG

interaction score [1]: 1.88 | interaction score [2]: 1.95 | interaction score [3]: 1.88 | interaction score [4]: 0.42 | interaction score [5]: 1.02 | interaction score [6]: 1.63
Binder: DENAALEAHIAALHAKNAALKAEIAALEG [P5-AA-1HGe-H]
